Data taken from US20090182306A1, “Microneedle Devices and Methods of Drug Delivery or Fluid Withdrawal” (Georgia Tech Research Corporation, priority 2006, published 2009).

Columns and labels:
[1] = Lysozyme enzymatic activity (EnzCheck lysozyme assay kit) after encapsulation and storage; assay type: biochemical
Experimental: Enzymatic activity of lysozyme encapsulated within CMC microneedle devices was tested with EnzCheck lysozyme assay kit (Molecular Probes). Microneedle devices weighing 5 mg that contained lysozyme encapsulated at a concentration of 5 wt % were completely dissolved in PBS at room temperature for 10 min. PBS was added to dilute each sample to 0.05 μg/ml lysozyme and 0.95 μg/ml CMC. Lysozyme activity was assayed using 1 ml solution samples for: (1) untreated lysozyme, (2) untreated lysozyme (0.05 μg) and CMC hydrogel (0.95 μg) mixed, and dissolved together, (3) lysozyme encapsulated in microneedles that were dissolved 1 h after fabrication, and (4) lysozyme encapsulated in microneedles that were dissolved after 60 days of storage at ambient conditions.

[2] = Lysozyme secondary structure by circular dichroism after encapsulation and storage; assay type: physicochemical
Experimental: The secondary structure of the model drug lysozyme was examined by spectropolarimetry (JASCO, J-810, Tokyo, Japan) after encapsulation and release from dissolving microneedles produced in accordance with Example 3. CMC pyramidal microneedle devices weighing 5 mg that encapsulated lysozyme at a mass fraction of 5 wt % were completely dissolved in […] PBS at room temperature for 10 min and filtered by centrifugal filtration (Centricon YM-50, Millipore, Bedford, Mass., USA) at 1000×g and room temperature for 10 min to isolate lysozyme (14.3 kDa) from the dissolved CMC matrix material (90 kDa average molecular mass). After determining lysozyme concentration, PBS was added to dilute the lysozyme to 20 μg/ml. CD spectra were taken for (1) untreated lysozyme, (2) lysozyme encapsulated in microneedles that were dissolved 1 h after fabrication, (3) lysozyme encapsulated in microneedles that were dissolved after 60 days of storage at ambient conditions (23±2° C. and 38±5% relative humidity), and (4) lysozyme thermally treated at 80° C. for 30 min to cause irreversible denaturation.

[3] = In vivo delivery of human growth hormone in hairless rats; conditions: subcutaneous injection of 196 μg
Experimental: Microneedle devices were prepared as described in Example 3. The microneedles and base substrate were both made of CMC and, in some cases, 50% trehalose was included in the formulation too. Human growth hormone (Pfizer) was added to the microneedles at a content of 191-249 μg per 100-needle array. The ratio of growth hormone to matrix material (i.e., CMC or CMC plus trehalose) was 1 to 9. Microneedles were inserted into the skin of hairless rats (Charles River Laboratories). The microneedles inserted easily by hand and were left in place for 24 hours. Minimal skin irritation was seen after microneedle use. A positive control group was included, in which rats received subcutaneous injection of 196 μg of human growth hormone. Blood was drawn periodically and assayed using an ELISA kit specific for human growth hormone without cross-reactivity with rat growth hormone (Diagnostic Systems Laboratories, Webster, Tex.).

Substance | loss of enzymatic activity compared to untreated enzyme ([1]; encapsulated in microneedles, dissolved in PBS) | retained enzymatic activity ([1]; released from microneedles after two months of storage) | change in lysozyme activity ([1]; untreated lysozyme mixed with dissolved CMC microneedle containing no lysozyme) | protein structure (CD) ([2]; after storage of microneedle patches for 2 months at room temperature) | change in protein secondary structure (CD) ([2]; encapsulated in microneedle patch, then released by dissolution, versus untreated lysozyme) | secondary structure (CD), positive control ([2]; thermally treated at 80° C. for 30 min) | time of serum concentration peak [3]
lysozyme: model drug (14.3 kDa) encapsulated at 5 wt % in CMC microneedle devices | no loss of enzymatic activity | 96% | no change in lysozyme activity | unchanged | no detectable change | extensive degradation of secondary structure | –
growth hormone: Human growth hormone (Pfizer) | – | – | – | – | – | – | within about one hour
